Data: article PMC3019557 (The Journal of Cell Biology, 2011)

T1: CFP-PPARγ2 (peroxisome proliferator activated receptor γ2 fused to ECFP) (UniProt P37231-1 1-505)
T1 sequence (looked up): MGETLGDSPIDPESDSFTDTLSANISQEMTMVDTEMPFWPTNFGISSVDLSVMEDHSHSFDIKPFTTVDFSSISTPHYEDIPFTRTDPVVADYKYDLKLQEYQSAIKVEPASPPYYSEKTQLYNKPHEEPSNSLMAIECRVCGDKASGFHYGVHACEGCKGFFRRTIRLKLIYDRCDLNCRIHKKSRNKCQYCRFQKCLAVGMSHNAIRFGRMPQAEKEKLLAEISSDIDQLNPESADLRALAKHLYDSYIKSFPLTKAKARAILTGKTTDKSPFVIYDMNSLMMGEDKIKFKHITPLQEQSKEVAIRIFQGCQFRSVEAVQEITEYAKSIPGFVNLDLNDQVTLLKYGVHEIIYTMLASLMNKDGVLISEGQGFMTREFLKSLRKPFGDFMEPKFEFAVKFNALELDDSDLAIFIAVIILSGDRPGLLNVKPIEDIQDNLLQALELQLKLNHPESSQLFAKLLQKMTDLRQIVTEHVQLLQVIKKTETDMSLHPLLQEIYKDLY


Molecular target: T1, CFP-PPARγ2 (peroxisome proliferator …)
Assay: FRET or BRET

| fold change in FRET, MIX against vehicle | Binder |
| --- | --- |
| > 1.5 fold | EYFP-SRC-3 (steroid receptor coactivator 3 fused to EYFP) (natural protein) not shown |
| > 1.5 fold | EYFP-SRC-2 (steroid receptor coactivator 2 fused to EYFP) (natural protein) not shown |
